Laboratory results: paper PMC6804253, “Predicting and Experimentally Validating Hot-Spot Residues at Protein–Protein Interfaces” (ACS Chemical Biology, 2019)
Like-named read-outs stand apart in the source and are kept apart here.

What was measured:
[1] = test system: PPIs of the SKEMPI data set (by PDBID); settings: single mutation to alanine, ref SKEMPI, cited from earlier work; for sk_ddG_kJ (SKEMPI experimental ΔΔG): complex given by PDBID; for sk_ddG_kJ (SKEMPI experimental ΔΔG, mutation to alanine): PPI given by PDBID, sheet sortedByGroup, r_group DERKH
[2] = test system: PPIs of the SKEMPI data set (by PDBID); test: SKEMPI experimental ΔΔG, single mutations to alanine; type: binding; settings: for sk_class: class of the SKEMPI experimental ΔΔG; for sk_class (class of the SKEMPI experimental ΔΔG): class by ΔΔG threshold 4.184 kJ/mol, ref SKEMPI

B1: 1AHW TC167A (protein, UniProt P13726 33-251, looked up, variant T167A)
extracellular domain: SGTTNTVAAYNLTWKSTNFKTILEWEPKPVNQVYTVQISTKSGDWKSKCFYTTDTECDLTDEIVKDVKQTYLARVFSYPAGNVESTGSAGEPLYENSPEFTPYLETNLGQPTIQSFEQVGTKVNVTVEDERTLVRRNNTFLSLRDVFGKDLIYTLYYWKSSSSGKKAAKTNTNEFLIDVDKGENYCFSVQAVIPSRTVNRKSTDSPVECMGQEKGEFRE
modifications: extracellular domain
sk_ddG_kJ (SKEMPI experimental ΔΔG) ([1]; residue group SQNT): -0.29 kJ | sk_class [2]: Neutral (neutral (little effect) 4.184 kJ/mol < ΔΔG > −4.184 kJ/mol)

B2: 1AHW NC199A (protein, UniProt P13726 33-251, looked up, variant N199A)
extracellular domain: SGTTNTVAAYNLTWKSTNFKTILEWEPKPVNQVYTVQISTKSGDWKSKCFYTTDTECDLTDEIVKDVKQTYLARVFSYPAGNVESTGSAGEPLYENSPEFTPYLETNLGQPTIQSFEQVGTKVNVTVEDERTLVRRNNTFLSLRDVFGKDLIYTLYYWKSSSSGKKTAKTNTNEFLIDVDKGENYCFSVQAVIPSRTVARKSTDSPVECMGQEKGEFRE
modifications: extracellular domain
sk_ddG_kJ (SKEMPI experimental ΔΔG) ([1]; residue group SQNT): 4.52 kJ | sk_class [2]: Positive (positive (a hot residue) ΔΔG ≥ 4.184 kJ/mol)

B3: 1DAN ST16A (protein, UniProt P13726 33-251, looked up, variant S16A)
extracellular domain: SGTTNTVAAYNLTWKATNFKTILEWEPKPVNQVYTVQISTKSGDWKSKCFYTTDTECDLTDEIVKDVKQTYLARVFSYPAGNVESTGSAGEPLYENSPEFTPYLETNLGQPTIQSFEQVGTKVNVTVEDERTLVRRNNTFLSLRDVFGKDLIYTLYYWKSSSSGKKTAKTNTNEFLIDVDKGENYCFSVQAVIPSRTVNRKSTDSPVECMGQEKGEFRE
modifications: extracellular domain
sk_ddG_kJ (SKEMPI experimental ΔΔG) ([1]; residue group SQNT): -0.54 kJ | sk_class [2]: Neutral (neutral (little effect) 4.184 kJ/mol < ΔΔG > −4.184 kJ/mol)

B4: 1A4Y EA287A (protein, UniProt P13489 2-461, looked up, variant E287A)
Ribonuclease inhibitor: SLDIQSLDIQCEELSDARWAELLPLLQQCQVVRLDDCGLTEARCKDISSALRVNPALAELNLRSNELGDVGVHCVLQGLQTPSCKIQKLSLQNCCLTGAGCGVLSSTLRTLPTLQELHLSDNLLGDAGLQLLCEGLLDPQCRLEKLQLEYCSLSAASCEPLASVLRAKPDFKELTVSNNDINEAGVRVLCQGLKDSPCQLEALKLESCGVTSDNCRDLCGIVASKASLRELALGSNKLGDVGMAELCPGLLHPSSRLRTLWIWECGITAKGCGDLCRVLRAKESLKALSLAGNELGDEGARLLCETLLEPGCQLESLWVKSCSFTAACCSHFSSVLAQNRFLLELQISNNRLEDAGVRELCQGLGQPGSVLRVLWLADCDVSDSSCSSLAATLLANHSLRELDLSNNCLGDAGILQLVESVRQPGCLLEQLVLYDIYWSEEMEDRLQALEKDKPSLRVIS
sk_ddG_kJ (SKEMPI experimental ΔΔG, mutation to alanine) [1]: 0.38 kJ | sk_class (class of the SKEMPI experimental ΔΔG) [2]: Neutral (neutral (little effect) 4.184 kJ/mol < ΔΔG > −4.184 kJ/mol)

B5: 1A4Y EA401A (protein, UniProt P13489 2-461, looked up, variant E401A)
Ribonuclease inhibitor: SLDIQSLDIQCEELSDARWAELLPLLQQCQVVRLDDCGLTEARCKDISSALRVNPALAELNLRSNELGDVGVHCVLQGLQTPSCKIQKLSLQNCCLTGAGCGVLSSTLRTLPTLQELHLSDNLLGDAGLQLLCEGLLDPQCRLEKLQLEYCSLSAASCEPLASVLRAKPDFKELTVSNNDINEAGVRVLCQGLKDSPCQLEALKLESCGVTSDNCRDLCGIVASKASLRELALGSNKLGDVGMAELCPGLLHPSSRLRTLWIWECGITAKGCGDLCRVLRAKESLKELSLAGNELGDEGARLLCETLLEPGCQLESLWVKSCSFTAACCSHFSSVLAQNRFLLELQISNNRLEDAGVRELCQGLGQPGSVLRVLWLADCDVSDSSCSSLAATLLANHSLRALDLSNNCLGDAGILQLVESVRQPGCLLEQLVLYDIYWSEEMEDRLQALEKDKPSLRVIS
sk_ddG_kJ (SKEMPI experimental ΔΔG, mutation to alanine) [1]: 3.60 kJ | sk_class (class of the SKEMPI experimental ΔΔG) [2]: Neutral (neutral (little effect) 4.184 kJ/mol < ΔΔG > −4.184 kJ/mol)

B6: 1A4Y SA289A (protein, UniProt P13489 2-461, looked up, variant S289A)
Ribonuclease inhibitor: SLDIQSLDIQCEELSDARWAELLPLLQQCQVVRLDDCGLTEARCKDISSALRVNPALAELNLRSNELGDVGVHCVLQGLQTPSCKIQKLSLQNCCLTGAGCGVLSSTLRTLPTLQELHLSDNLLGDAGLQLLCEGLLDPQCRLEKLQLEYCSLSAASCEPLASVLRAKPDFKELTVSNNDINEAGVRVLCQGLKDSPCQLEALKLESCGVTSDNCRDLCGIVASKASLRELALGSNKLGDVGMAELCPGLLHPSSRLRTLWIWECGITAKGCGDLCRVLRAKESLKELALAGNELGDEGARLLCETLLEPGCQLESLWVKSCSFTAACCSHFSSVLAQNRFLLELQISNNRLEDAGVRELCQGLGQPGSVLRVLWLADCDVSDSSCSSLAATLLANHSLRELDLSNNCLGDAGILQLVESVRQPGCLLEQLVLYDIYWSEEMEDRLQALEKDKPSLRVIS
sk_ddG_kJ (SKEMPI experimental ΔΔG) ([1]; mutation by mut_pdb): 0.13 kJ | sk_class [2]: Neutral (neutral (little effect) 4.184 kJ/mol < ΔΔG > −4.184 kJ/mol)

B7: 1A4Y EA344A (protein, UniProt P13489 2-461, looked up, variant E344A)
Ribonuclease inhibitor: SLDIQSLDIQCEELSDARWAELLPLLQQCQVVRLDDCGLTEARCKDISSALRVNPALAELNLRSNELGDVGVHCVLQGLQTPSCKIQKLSLQNCCLTGAGCGVLSSTLRTLPTLQELHLSDNLLGDAGLQLLCEGLLDPQCRLEKLQLEYCSLSAASCEPLASVLRAKPDFKELTVSNNDINEAGVRVLCQGLKDSPCQLEALKLESCGVTSDNCRDLCGIVASKASLRELALGSNKLGDVGMAELCPGLLHPSSRLRTLWIWECGITAKGCGDLCRVLRAKESLKELSLAGNELGDEGARLLCETLLEPGCQLESLWVKSCSFTAACCSHFSSVLAQNRFLLALQISNNRLEDAGVRELCQGLGQPGSVLRVLWLADCDVSDSSCSSLAATLLANHSLRELDLSNNCLGDAGILQLVESVRQPGCLLEQLVLYDIYWSEEMEDRLQALEKDKPSLRVIS
sk_ddG_kJ (SKEMPI experimental ΔΔG, mutation to alanine) [1]: 0.67 kJ | sk_class (class of the SKEMPI experimental ΔΔG) [2]: Neutral (neutral (little effect) 4.184 kJ/mol < ΔΔG > −4.184 kJ/mol)

B8: 1A4Y KA320A (protein, UniProt P13489 2-461, looked up, variant K320A)
Ribonuclease inhibitor: SLDIQSLDIQCEELSDARWAELLPLLQQCQVVRLDDCGLTEARCKDISSALRVNPALAELNLRSNELGDVGVHCVLQGLQTPSCKIQKLSLQNCCLTGAGCGVLSSTLRTLPTLQELHLSDNLLGDAGLQLLCEGLLDPQCRLEKLQLEYCSLSAASCEPLASVLRAKPDFKELTVSNNDINEAGVRVLCQGLKDSPCQLEALKLESCGVTSDNCRDLCGIVASKASLRELALGSNKLGDVGMAELCPGLLHPSSRLRTLWIWECGITAKGCGDLCRVLRAKESLKELSLAGNELGDEGARLLCETLLEPGCQLESLWVASCSFTAACCSHFSSVLAQNRFLLELQISNNRLEDAGVRELCQGLGQPGSVLRVLWLADCDVSDSSCSSLAATLLANHSLRELDLSNNCLGDAGILQLVESVRQPGCLLEQLVLYDIYWSEEMEDRLQALEKDKPSLRVIS
sk_ddG_kJ (SKEMPI experimental ΔΔG, mutation to alanine) [1]: -1.30 kJ | sk_class (class of the SKEMPI experimental ΔΔG) [2]: Neutral (neutral (little effect) 4.184 kJ/mol < ΔΔG > −4.184 kJ/mol)

B9: 1AHW TC197A (protein, UniProt P13726 33-295, looked up, variant T197A)
Tissue factor: SGTTNTVAAYNLTWKSTNFKTILEWEPKPVNQVYTVQISTKSGDWKSKCFYTTDTECDLTDEIVKDVKQTYLARVFSYPAGNVESTGSAGEPLYENSPEFTPYLETNLGQPTIQSFEQVGTKVNVTVEDERTLVRRNNTFLSLRDVFGKDLIYTLYYWKSSSSGKKTAKTNTNEFLIDVDKGENYCFSVQAVIPSRAVNRKSTDSPVECMGQEKGEFREIFYIIGAVVFVVIILVIILAISLHKCRKAGVGQSWKENSPLNVS
sk_ddG_kJ (SKEMPI experimental ΔΔG) ([1]; residue group SQNT): 5.65 kJ | sk_class [2]: Positive (positive (a hot residue) ΔΔG ≥ 4.184 kJ/mol)
